Changes are numbered by the printed parent chain. Names may count otherwise.

Consider five molecules from patent publication US20190352419A1 (ALX ONCOLOGY, published 2019).

Test [1] concerns the target T1, NOD mouse SIRP-α protein (mouse (NOD strain)).
T1 construct: Soluble SPR analyte
T1 chain: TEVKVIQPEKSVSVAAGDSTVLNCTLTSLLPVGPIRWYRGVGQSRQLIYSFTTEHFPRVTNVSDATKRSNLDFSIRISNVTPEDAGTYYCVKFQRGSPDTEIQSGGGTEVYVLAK
As to the kind of experiment: binding affinity KD (SPR; method not restated in Example 7).

The target of test [2] is T2, BL6 mouse SIRP-α protein (mouse (C57BL/6 strain), UniProt P97797 32-148).
T2 construct: Soluble SPR analyte; also called C57BL/6
T2 sequence: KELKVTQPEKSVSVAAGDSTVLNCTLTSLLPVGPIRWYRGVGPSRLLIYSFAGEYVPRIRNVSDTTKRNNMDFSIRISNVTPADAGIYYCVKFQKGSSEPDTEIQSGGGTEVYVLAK
Described as above.

The target in test [3] is T3, BALBc mouse SIRP-α protein (mouse (BALB/c strain)).
T3 construct: Soluble SPR analyte
T3 chain: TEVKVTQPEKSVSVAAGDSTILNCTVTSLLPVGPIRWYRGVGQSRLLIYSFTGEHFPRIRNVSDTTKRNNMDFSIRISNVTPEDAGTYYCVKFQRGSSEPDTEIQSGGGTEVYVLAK
The test is described as above.

Test [4] concerns the target T4, human SIRP-β (human, UniProt O00241 30-148).
T4 construct: also called SIRPb; hSIRPb
Described as above.

Test [5] has as its target T5, cynomolgus SIRP-α (SEQ ID NO:11) (cynomolgus, UniProt Q5TFQ8 30-148 (human entry)).
T5 construct: 'extracellular domain (e.g., the D1 domain)' of a cynomolgus SIRP-α polypeptide; soluble SPR analyte; also called cyno1
T5 chain: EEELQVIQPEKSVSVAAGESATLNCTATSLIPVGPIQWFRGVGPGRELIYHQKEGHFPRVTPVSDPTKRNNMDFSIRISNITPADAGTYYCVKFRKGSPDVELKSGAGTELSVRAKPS
Described as above.

Test [6] deals with T6, human SIRP-α v1 (human, UniProt P78324 31-149).
T6 construct: used as soluble SPR analyte; also called Human V1; hSIRPa v1
T6 sequence (P78324 31-149): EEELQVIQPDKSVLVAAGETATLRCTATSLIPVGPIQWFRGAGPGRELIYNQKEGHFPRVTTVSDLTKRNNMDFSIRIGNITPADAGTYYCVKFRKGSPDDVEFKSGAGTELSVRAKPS
Described as above.

Test [7] has as its target T7, human SIRP-α v2 (human).
T7 construct: soluble SPR analyte; also called Human V2; hSIRPa v2
The description is as above.

The target of test [8] is T8, human SIRP-γ (human, UniProt Q9P1W8 29-147).
T8 construct: also called SIRPg; hSIRPg
T8 sequence (Q9P1W8 29-147): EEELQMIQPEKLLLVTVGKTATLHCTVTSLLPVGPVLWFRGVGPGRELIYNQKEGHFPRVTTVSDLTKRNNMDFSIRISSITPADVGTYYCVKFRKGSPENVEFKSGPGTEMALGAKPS
Described as above.

The target in test [9] is T2, BL6 mouse SIRP-α protein. The experiment in a line: SPR KD (ProteOn XPR36), antibody on chip, SIRP analyte in solution.
Test [10] addresses T6, human SIRP-α v1. The experiment in a line: SPR (refers to Table M).

T4 sequence (O00241 30-148): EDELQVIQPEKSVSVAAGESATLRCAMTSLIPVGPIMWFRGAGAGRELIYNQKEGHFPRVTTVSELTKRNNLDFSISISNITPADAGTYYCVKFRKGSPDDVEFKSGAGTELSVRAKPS
T7 sequence (chain, as listed by the source): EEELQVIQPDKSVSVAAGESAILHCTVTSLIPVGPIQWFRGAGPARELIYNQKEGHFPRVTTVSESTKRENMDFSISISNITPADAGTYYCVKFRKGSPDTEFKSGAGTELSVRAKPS

B1: PC301 (antibody, human IgG1, lambda, N297A)
heavy: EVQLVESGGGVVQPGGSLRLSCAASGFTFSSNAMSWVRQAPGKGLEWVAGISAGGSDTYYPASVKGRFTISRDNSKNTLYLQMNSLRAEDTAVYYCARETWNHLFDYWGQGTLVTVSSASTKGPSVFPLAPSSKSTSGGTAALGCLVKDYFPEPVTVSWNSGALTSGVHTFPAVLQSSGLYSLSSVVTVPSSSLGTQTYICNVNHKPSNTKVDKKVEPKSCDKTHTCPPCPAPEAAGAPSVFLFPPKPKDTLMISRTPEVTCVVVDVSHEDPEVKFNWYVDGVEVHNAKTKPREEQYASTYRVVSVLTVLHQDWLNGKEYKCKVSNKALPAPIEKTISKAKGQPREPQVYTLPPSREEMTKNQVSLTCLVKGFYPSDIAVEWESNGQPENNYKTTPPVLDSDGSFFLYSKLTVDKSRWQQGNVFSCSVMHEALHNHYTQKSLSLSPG
light: SYELTQPPSVSVSPGQTARITCSGGSYSSYYYAWYQQKPGQAPVTLIYSDDKRPSNIPERFSGSSSGTTVTLTISGVQAEDEADYYCGGYDQSSYTNPFGGGTKLTVLGQPKAAPSVTLFPPSSEELQANKATLVCLISDFYPGAVTVAWKADSSPVKAGVETTTPSKQSNNKYAASSYLSLTPEQWKSHRSYSCQVTHEGSTVEKTVAPTECS
notes: also called antibody PC301
Turning to B1, the Kd amounted to 2.93 nM in test [1]; 9.25 nM in test [2]; 9.53 nM in [3]; 0.0122 nM in [4]; 0.0389 nM in test [5]; 0.00206 nM in test [6].

B2: PC367 (antibody, human IgG2, lambda, N297A)
heavy: EVQLVESGGGVVQPGGSLRLSCAASGFTFSSNAMSWVRQAPGKGLEWVAGISAGGSDTYYPASVKGRFTISRDNSKNTLYLQMNSLRAEDTAVYYCARETWNHLFDYWGQGTLVTVSSASTKGPSVFPLAPCSRSTSESTAALGCLVKDYFPEPVTVSWNSGALTSGVHTFPAVLQSSGLYSLSSVVTVPSSNFGTQTYTCNVDHKPSNTKVDKTVERKCCVECPPCPAPPVAGPSVFLFPPKPKDTLMISRTPEVTCVVVDVSHEDPEVQFNWYVDGVEVHNAKTKPREEQFASTFRVVSVLTVVHQDWLNGKEYKCKVSNKGLPAPIEKTISKTKGQPREPQVYTLPPSREEMTKNQVSLTCLVKGFYPSDIAVEWESNGQPENNYKTTPPMLDSDGSFFLYSKLTVDKSRWQQGNVFSCSVMHEALHNHYTQKSLSLSPG
light: B1 light with K104Q, A114N, S116T, S154G, T165K, N171S, N172D
notes: AB21 MutAll VH + human IgG2 N297A; Hum1 VL version 2 + IGLC1 SD light chain
For B2, the Kd was 0.0823 nM in test [7]; 6.37 nM in [1]; 0.0352 nM in [8]; 19.7 nM in test [2]; 7.87 nM in test [3]; 0.0327 nM in test [4]. For the same molecule, the Kd came to 0.0501 nM in [5] and 0.00211 nM in test [6].

B3: PC334 (antibody, human IgG1, lambda, N297A)
heavy: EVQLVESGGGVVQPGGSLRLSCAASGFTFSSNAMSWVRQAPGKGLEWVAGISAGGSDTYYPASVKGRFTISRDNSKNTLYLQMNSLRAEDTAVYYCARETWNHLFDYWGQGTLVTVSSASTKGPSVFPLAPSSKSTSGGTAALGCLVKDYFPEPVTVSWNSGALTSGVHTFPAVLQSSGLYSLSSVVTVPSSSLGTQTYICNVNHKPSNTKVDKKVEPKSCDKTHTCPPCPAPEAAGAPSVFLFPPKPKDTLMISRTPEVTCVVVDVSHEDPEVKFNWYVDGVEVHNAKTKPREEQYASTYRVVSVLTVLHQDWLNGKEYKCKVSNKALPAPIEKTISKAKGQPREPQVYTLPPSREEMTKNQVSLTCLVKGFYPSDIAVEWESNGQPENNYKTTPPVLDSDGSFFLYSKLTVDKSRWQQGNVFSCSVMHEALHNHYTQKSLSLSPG
light: B1 light with A114N, S116T, S154G, T165K
notes: Original Hum1 VL + IGLC1 light chain; also called antibody PC334; Hum1_IGLC1
For B3, the Kd was 0.0438 nM in test [7]; 8.19 nM in test [1]; 0.0452 nM in test [8]; 3.29 nM in test [2]; 6.75 nM in test [3]; 0.0371 nM in [4]. For the same molecule, the Kd in test [5] came out at 0.0774 nM; in test [6], 0.0151 nM.

B4: Hum8/AB21_HC_Mutall (antibody, V domains shown)
VH: EVQLVESGGGVVQPGGSLRLSCAASGFTFSSNAMSWVRQAPGKGLEWVAGISAGGSDTYYPASVKGRFTISRDNSKNTLYLQMNSLRAEDTAVYYCARETWNHLFDYWGQGTLVTVSS
VL: SYELTQPPSVSVSPGQTARITCSGGAYSSYYYAWYQQKPGQAPVLVIYSDSKRPSGIPERFSGSSSGTTVTLTISGVQAEDEADYYCGGYDQSSYTNPFGGGTKLTVL
As for B4, the Kd in test [9] is 415000 nM; in [10], no more than 0.01 nM.

B5: Hum9/AB21_HC_Mutall (antibody, V domains shown)
VH: B4 VH
VL: B4 VL with S51D
Take B5: the results for the Kd in test [9] and in test [10] were 533000 nM and no more than 0.01 nM, respectively.

For orientation: Kd means the free concentration of one partner at which half of the binding sites on the other are occupied at equilibrium, for simple one-to-one binding. A lower Kd goes with tighter binding.
